Measured values as given in patent publication US20200247856A1 (SHIRE HUMAN GENETIC THERAPIES, published 2020).
One block for each binder: values may come before it.

Legend:
[1] = molecular target: T1, Activin A (R&D Systems, Catalog number 338-AC-050 CF) (UniProt P08476 311-426); assay: cell-based or functional assay
T1 sequence (looked up): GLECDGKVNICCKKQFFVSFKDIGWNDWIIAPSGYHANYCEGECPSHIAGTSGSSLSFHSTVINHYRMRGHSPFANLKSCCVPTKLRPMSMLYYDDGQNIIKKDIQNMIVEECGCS

[2] = molecular target: T2, Myostatin (R&D Systems, Catalogue number 788-G8-010/CF) (UniProt O14793 267-375); assay: cell-based or functional assay
T2 sequence (looked up): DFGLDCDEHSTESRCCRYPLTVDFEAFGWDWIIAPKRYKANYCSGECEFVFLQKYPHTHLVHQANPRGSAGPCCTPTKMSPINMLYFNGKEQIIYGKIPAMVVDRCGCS

Activin A IC50 (nM), luciferase gene reporter assay (Smad3, A204 cells) [1]: 0.8 nM | Myostatin IC50 (nM), luciferase gene reporter assay (Smad3, A204 cells) [2]: 0.7 nM
B1: FS315K(76,81,82)E-mFc (Fc fusion, not shown: a dimerising Fc or GST)
chain: GNCWLRQAKNGRCQVLYKTELSKEECCSTGRLSTSWTEEDVNDNTLFKWMIFNGGAPNCIPCKETCENVDCGPGKECRMNEENKPRCVCAPDCSNITWKGPVCGLDGKTYRNECALLKARCKEQPELEVQYQGRCKKTCRDVFCPGSSTCVVDQTNNAYCVTCNRICPEPASSEQYLCGNDGVTYSSACHLRKATCLLGRSIGLAYEGKCIKAKSCEDIQCTGGKKCLWDFKVGRGRCSLCDELCPDSKSDEPVCASDNATYASECAMKEAACSSGVLLEVKHSGSCNSISEDTEEEEEDEDQDYSFPISSILEW

Activin A IC50 (nM), luciferase gene reporter assay (Smad3, A204 cells) [1]: 0.5 nM | Myostatin IC50 (nM), luciferase gene reporter assay (Smad3, A204 cells) [2]: 0.5 nM
B2: ActRIIB-Fc protein (R&D Systems, Catalogue number 339-RBB-100) (Fc fusion, UniProt Q13705 19-134, looked up, not shown: a dimerising Fc or GST)
chain: SGRGEAETRECIYYNANWELERTNQSGLERCEGEQDKRLHCYASWRNSSGTIELVKKGCWLDDFNCYDRQECVATEENPQVYFCCCEGNFCNERFTHLPEAGGPEVTYEPPPTAPT
